System: K4 kissing-loop RNA reporter
Experiment: apparent KD of K4 kissing-loop reporter; higher = weaker reporter binding
Conditions: Eterna round: R107
Experimental: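 RNA-MaP round R107: designed RNA switches with theophylline, tryptophan, arginine or FMN aptamers are transcribed on-chip within common flanks. They are titrated with a labelled K4 kissing-loop RNA reporter in RNA-MaP buffer (100 mM Tris pH 7.5, 80 mM KCl, 4 mM MgCl2), without ligand or with the indicated ligand. Median apparent KD per design.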

[1] = input ligand: theophylline 20 uM
[2] = input ligand: tryptophan 2.4 mM
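Note: bound reporter read as fluorescence of individual clusters on recovered sequencing chips by microscopy, with normalized cluster intensities fitted with a binding model.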

Sequence	apparent KD of K4 kissing-loop reporter (input ligand: FMN 200 uM) [µM]	apparent KD of K4 kissing-loop reporter (input ligand: arginine 13.2 mM) [µM]	apparent KD of K4 kissing-loop reporter (input ligand: none) [µM]	apparent KD of K4 kissing-loop reporter [1] [µM]	apparent KD of K4 kissing-loop reporter [2] [µM]
AUUUUUUUAUCAGGAUAUUAGUGAUGGUUGUUUUUGUUAGUGAUGUUGAUAUUUGUUUUAUGUAUUUAAGAAGGGAUUGAGAUGU [zbbzmullin]	0.0681	0.0247	0.0429	0.0317	0.0497
AUUUUUUUAUCAGGAUAUUAGUGUUGGUUUGUUUUGUUAGUGAUGUUGAUAUUUGUUUUAUGUAUUUAAGAAGGGAUUGAGAUGU [huupullin]	0.283	0.254	0.278	0.395	0.211
CAACGAGUGAUGGUCGUUGACGGCCAUCCCGAGGAUAUGGGAUUUUCCAGAAGGCGGGAUCGCCCGGAGUGAUGUUCCGUGAUUU [Same State FMN A GF 15]	0.0733	0.228	0.15	0.221	0.116
CAAGCUCUCCAAGGAUAUGAUAUCGACCCGUCUUAGUGAUGUUAAGGCUGUAGAAAUUCACAUUGAUCAGAAGGUGGUACCCUCC [theeternabot_sameState_KL_FMN_B_8]	0.317	0.194	0.256	0.351	0.239
CACCAUGAAUUCUCUAGGAGUGAUGUUUUUCGAGGACCGGUACGGCCGCCACUCGGACGAGGACCCUGGGAGCGGCGAAGCGGCU [nigmullin]	0.235	0.104	0.238	0.246	0.15
CACGAUGAAUUCUCUAGGAGUGAUGUUUUUCGAGGACCGGUACGGCCGCCACUCGGACGACGAGCGUGGUAGCGGCCUGAAGACU [,omullin]	0.743	0.225	0.468	0.68	0.38
CAGAUGUAGGCGGCCGCCACUCUCAUUACCGUACGCAAGUAUGAUUAGAAGUGAUGUUUCUCGGUGAGGACCGGGCCAUUCCCGA [theeternabot_sameState_KL_Trp_B_27]	0.69	0.551	0.67	0.672	0.545
CAUACGCAUGGAGGAUAUGAGAUUUCUCAUGUCAUUUAAUAUUCUCAGUGAUGUUGAGAUUUUGGCUCAGAAGGCCAUGUGUAUG [Ex FMN B 19]	0.176	0.249	0.281	0.297	0.273
CAUACGCAUGGAGGAUAUGAGAUUUUUCAUAUUAUUUUUUAUUCUCAGUGAUGUUGGGAUUUAUAAUCAGAAGGCCAUGUGUAUG [Ex FMN B 11]	0.0884	0.0792	0.0849	0.0947	0.0889
CAUAGACAAGUGAUGUUUGUCAUAACCGAAGGAGCGUCUUUAAAGACAGGUAGGUCGCGGAUUAAUUAAGUUAUUAUUCUUUUUA [JR_SSArginiA_Sub018]	0.552	0.494	0.644	0.573	0.439
CAUUAAACUCAAACUAUUGGGUUUACGUUCCGAGGACCGGUACGGCCGCCACUCGGUCGAUGCUAUACCAUACGAGUGAUGUUCG [theeternabot_sameState_KL_Trp_A_1]	0.465	0.452	0.502	0.404	0.352
CAUUCACGGCGAGUCGAAGUGAUGUUUCGGCGAGGACCGGUACGGCCGCCACUCGGAUAAAUAUAGCUUAUCACAUACACUUUCG [theeternabot_exclusion_KL_Trp_A_27]	0.159	0.128	0.14	0.186	0.132
CCAAUCUGUUACGAUACCAGUCAAAGAUAUUUUAUCAAUGCCCUCACCGAGUGAUGUUCGGACCCUUGGCAGCGUCUGGGAUAGG [ddfcmullin]	0.165	0.142	0.186	0.165	0.149
CCAAUCUUUUACGAUACCAGUCUAAUAUAUUUAAUCAAAACCCUCGCCGAGUGAUGUUCGGACCCUUGGCAGCGUUUGCGAGAGG [xssgstkmullin]	0.656	0.365	0.543	0.452	0.424
CCAUUCAUUUACGAUACCAGUCUAAUAUAUUUAAUCAAAACCCUCGCCGAGUGAUGUUCGGACCCUUGGCAGCGUCUGCGAGAGG [oookmullin]	0.596	0.464	0.598	0.535	0.452
CCAUUCUGUUACGAUACCAGUCUAAUAUAUUUGAUCAAUACCCUCGCCGAGUGAUGUUCGGACCCUUGGCAGCGUCUGGGACAGG [bbybmullin]	0.453	0.377	0.41	0.44	0.364
CCCUAAAUAUGCAGUGAUGUUGCAACUGAUACCAGUAUCGAAAGAUACCCUUGGCAGCGGAAAACCGCUACGUAAUUUAAAAGGG [Ex Theophylline A K4 19]	0.243	0.327	0.356	0.385	0.243
CCGAAGAACCAGUGAUGUUGGUUGACUAGACAGGAUAUGAGCAACAUCAGAAGGGUCUGGCUUCGGGAGUGGGUUGCGCUGACCU [Onbizaes]	0.283	0.259	0.616	0.296	0.576
CCGCUACCCUCAGGAUAUUAAUAUGGAGUGAUGUUCUAUGUCCGAUGGCGGAAACGCCAUCGGGAAUAAGAAGGGAGGGUAGCGG	0.189	0.261	0.482	0.313	0.329
CCGGCCCAGCCGGAUACCAGUGCGCCGCAGGGAACGGCGGGCCCAGAGUGAUGUUCGGGACACCCUUGGCAGCCGCCUGGGUCCC [#2 Same State - Theophylline B Attempt #30 (HarryS)]	0.618	0.364	0.669	0.355	0.435
CCGGCCCAGCCGGAUACCAGUGCGCCGCAGGGAACGGCGGGCCCAGAGUGAUGUUCGGGACACCCUUGGCAGCCGCCUGGGUCCU [#2 Same State - Theophylline B Attempt #29 (HarryS)]	0.85	0.662	0.718	0.767	0.864

Source: the supplement of paper PMC9170038
